Here are results for 24 molecules from patent publication US20260043020A1, “BINDING MEMBERS WITH ALTERED DIVERSITY SCAFFOLD DOMAINS” (priority 2016, published 2026).

Assay [1] deals with trypsin. Nature of the assay: TRF ELISA, Fab on biotinylated trypsin. A general note: An ELISA detects its analyte on a solid surface through an enzyme-linked reagent.
Assay [2] has as its target trypsin. The assay is described as follows: phage TRF ELISA; GlyAla (Pro3Gly, Arg4Ala) mutant against the clone.
Assay [3] deals with trypsin. The assay is described as follows: monoclonal phage TRF ELISA.

Where a chain is given by its changes, count along the chain named.

B1: KB_A01 Fab (Fab, V domains shown)
VH: EVQLVESGGGLVRPGGSLRLSCAASGFTFSSYAMSWVRQAPGKGLEWVSAISGSGGSTYYADSVKGRFTISRDNTKNSLYLQMTSLRADDTAFYYCVKDFGPGYGTGWFDYWGPGTLVTVSS
VL: YLNWYQQKPGKAPKLLIYAAEVCPRILMRCKQDSDCLAGCVCGPNGFCGGTSGVPSRFSGSRSGTEFTLTISSLQPEDFATYYCQKVDDYPLTFGGGTKVEIKR
Take B1: in the assay with trypsin [1], the TRF signal for 0.6 ug/mL Fab was determined as 2390, the TRF signal for 2.4 ug/mL Fab worked out at 16600 and the TRF signal for 10 ug/mL Fab turned out to be 55600.

B2: KB_B01 (scFv, V domains shown)
VH: B1 VH
VL: AVNWYQQLPGKAPKLLIYAAAGCPRILMRCKQDSDCLAGCVCGPNGFCGTRSGVSDRFSGSKSGTSASLAISGLRSEDEADYYCAAWDDSLRAYVFGTGTKLTVLG
As for B2, the % reduction in binding signal with trypsin [2] was 95%. The trypsin binding signal (FU) in the assay with trypsin [3] is 57700 FU.

B3: KB_B02 (scFv, V domains shown)
VH: B1 VH
VL: AVNWYQQLPGKAPKLLIYAAVGCPRILMRCKQDSDCLAGCVCGPNGFCGTGSGIPERFSGSKSGNTASLTISGLQAEDEGDYYCAAWDDSLSGPVFGGGTKLTVLG
In the assay with trypsin [2], B3 yielded a % reduction in binding signal of 98%. In the assay with trypsin [3], this molecule displayed a trypsin binding signal (FU) of 116000 FU.

B4: KB_A01 (scFv, V domains shown)
VH: B1 VH
VL: B1 VL
B4: in the assay with trypsin [2], the % reduction in binding signal is 93%. In the assay with trypsin [3], this molecule registered a trypsin binding signal (FU) of 20200 FU.

B5: KB_A10 (scFv, V domains shown)
VH: B1 VH
VL: B3 VL with V21G, T50S, G51N, I54V, E56D, A76S, G80A, P94V, K101Q
Regarding B5, the % reduction in binding signal with trypsin [2] worked out at 100%. This molecule yielded a trypsin binding signal (FU) in the assay with trypsin [3] of 38800 FU.

B6: KB_A02 Fab (Fab, V domains shown)
VH: B1 VH
VL: AVNWYQQLPGKAPKLLIYAAAKCPRILMRCKQDSDCLAGCVCGPNGFCGGASGVSDRFSGSIDSSSNSASLTISGLKPEDEGDYYCQSYDSSNRWVFGGGTKVTVLG
In the assay with trypsin [1], B6 had a TRF signal for 0.6 ug/mL Fab of 93800, a TRF signal for 2.4 ug/mL Fab of 221000 and a TRF signal for 10 ug/mL Fab of 255000.

B7: KB_A05 (scFv, V domains shown)
VH: B1 VH
VL: AVNWYQQLPGKAPKLLIYAADKCPRILMRCKQDSDCLAGCVCGPNGFCGGGSGIPERFSGSKSGTSASLAISGLRSEDEADYYCATWDDNLNGVVFGGGTKLTVLG
For B7, the % reduction in binding signal with trypsin [2] came to 100%. The molecule further returned a trypsin binding signal (FU) with trypsin [3] of 121000 FU.

B8: KB_B02 Fab (Fab, V domains shown)
VH: B1 VH
VL: B3 VL
Turning to B8, in the assay with trypsin [1], the TRF signal for 0.6 ug/mL Fab came out at 2340, the TRF signal for 2.4 ug/mL Fab was 15900 and the TRF signal for 10 ug/mL Fab worked out at 56600.

B9: KB_A09 (scFv, V domains shown)
VH: B1 VH
VL: AVNWYQQLPGKAPKLLIYAAERCPRILMRCKQDSDCLAGCVCGPNGFCGTPSGVPDRFSGSIDTFSNSASLTISGLKTEDEADYYCQSYDSSHHWVFGGGTKLTVLG
The molecule B9 returned a % reduction in binding signal with trypsin [2] of 100%. In the assay with trypsin [3], this molecule showed a trypsin binding signal (FU) of 57700 FU.

B10: KB_A11 Fab (Fab, V domains shown)
VH: B1 VH
VL: YLNWYQQKPGKAPKLLIYAAEICPRILMRCKQDSDCLAGCVCGPNGFCGPSSGIPARFSGSGYGTDFTLTINNIESEDAAYYFCLQHDNFPYTFGQGTKVEIKR
In the assay with trypsin [1], B10 showed a TRF signal for 0.6 ug/mL Fab of 48900, a TRF signal for 2.4 ug/mL Fab of 141000 and a TRF signal for 10 ug/mL Fab of 212000.

B11: KB_C10 Fab (Fab, V domains shown)
VH: B1 VH
VL: AVNWYQQLPGKAPKLLIYAAGPCPRILMRCKQDSDCLAGCVCGPNGFCGADSGVSDRFSGSKSGTSASLAITGLQAEDEGDYYCAAWDDSLNGLVFGGGTKVTVLG
For the molecule B11, in the assay with trypsin [1], the TRF signal for 0.6 ug/mL Fab was found to be 41700, the TRF signal for 2.4 ug/mL Fab turned out to be 146000 and the TRF signal for 10 ug/mL Fab came to 238000.

B12: KB_A02 (scFv, V domains shown)
VH: B1 VH
VL: B6 VL
In the assay with trypsin [2], B12 showed a % reduction in binding signal of 96%. Also, the trypsin binding signal (FU) with trypsin [3] stood at 183000 FU.

B13: KB_B01 Fab (Fab, V domains shown)
VH: B1 VH
VL: B2 VL
Turning to B13, in the assay with trypsin [1], the TRF signal for 0.6 ug/mL Fab is 54800, the TRF signal for 2.4 ug/mL Fab came out at 153000 and the TRF signal for 10 ug/mL Fab turned out to be 257000.

B14: KB_C08 Fab (Fab, V domains shown)
VH: B1 VH
VL: B7 VL with D21A, K22V, G50T, G51R, S68F, T86A, N90S, N92S
In the assay with trypsin [1], B14 registered a TRF signal for 0.6 ug/mL Fab of 51100, a TRF signal for 2.4 ug/mL Fab of 131000 and a TRF signal for 10 ug/mL Fab of 183000.

B15: KB_A11 (scFv, V domains shown)
VH: B1 VH
VL: B10 VL
Turning to B15, the % reduction in binding signal with trypsin [2] is 100%. For the same molecule, the trypsin binding signal (FU) with trypsin [3] stood at 16400 FU.

B16: KB_A09 Fab (Fab, V domains shown)
VH: B1 VH
VL: B9 VL
As to B16, in the assay with trypsin [1], the TRF signal for 0.6 ug/mL Fab was determined as 21000, the TRF signal for 2.4 ug/mL Fab turned out to be 84100 and the TRF signal for 10 ug/mL Fab was 161000.

B17: KB_A03 (scFv, V domains shown)
VH: B1 VH
VL: AVNWYQQLPGKAPKLLINAADRCPRILMRCKQDSDCLAGCVCGPNGFCGTNSGVPDRFSGSSSGNTASLTITGAQAEDEADYYCNSRDSSGNNWVFGGGTKVTVLG
In turn, B17 registered a % reduction in binding signal in the assay with trypsin [2] of 90%. In addition, the trypsin binding signal (FU) with trypsin [3] is 28700 FU.

B18: KB_C07 (scFv, V domains shown)
VH: B1 VH
VL: B2 VL with A21V, T50S, R51A, A86S, A93G, L102V
B18 came in with a % reduction in binding signal with trypsin [2] of 100%. Besides, the trypsin binding signal (FU) with trypsin [3] stood at 43300 FU.

B19: KB_A10 Fab (Fab, V domains shown)
VH: B1 VH
VL: B3 VL with V21G, T50S, G51N, I54V, E56D, A76S, G80A, P94V, K101Q
In the assay with trypsin [1], B19 displayed a TRF signal for 0.6 ug/mL Fab of 14600, a TRF signal for 2.4 ug/mL Fab of 71900 and a TRF signal for 10 ug/mL Fab of 68700.

B20: KB_A07 Fab (Fab, V domains shown)
VH: B1 VH
VL: YLNWYQQKPGKAPKLLIYAAGVCPRILMRCKQDSDCLAGCVCGPNGFCGSRSGVPSRFSGSGSGTDFTLTISSLQPEDFATYYCQQGASPPYTFGQGTKVEIKR
In the assay with trypsin [1], B20 displayed a TRF signal for 0.6 ug/mL Fab of 108000, a TRF signal for 2.4 ug/mL Fab of 201000 and a TRF signal for 10 ug/mL Fab of 226000.

B21: KB_C09 Fab (Fab, V domains shown)
VH: B1 VH
VL: B9 VL with E21G, T50G, P51G, T64S, F65S, K77R, T78A, H93N
As to B21, in the assay with trypsin [1], the TRF signal for 0.6 ug/mL Fab was 46800, the TRF signal for 2.4 ug/mL Fab is 205000 and the TRF signal for 10 ug/mL Fab amounted to 289000.

B22: KB_A06 Fab (Fab, V domains shown)
VH: B1 VH
VL: AVNWYQQLPGKAPKLLIYAAVRCPRILMRCKQDSDCLAGCVCGPNGFCGTPSGIPERFSGSIDRSTNSASLTISGLKTEDEADYYCQSYDSSNLNWVFGGGTKLTVLG
B22: in the assay with trypsin [1], the TRF signal for 0.6 ug/mL Fab amounted to 108000, the TRF signal for 2.4 ug/mL Fab came out at 212000 and the TRF signal for 10 ug/mL Fab is 242000.

B23: KB_C07 Fab (Fab, V domains shown)
VH: B1 VH
VL: B2 VL with A21V, T50S, R51A, A86S, A93G, L102V
Turning to B23, in the assay with trypsin [1], the TRF signal for 0.6 ug/mL Fab was determined as 153000, the TRF signal for 2.4 ug/mL Fab amounted to 247000 and the TRF signal for 10 ug/mL Fab worked out at 276000.

B24: KB_A06 (scFv, V domains shown)
VH: B1 VH
VL: B22 VL
B24: the % reduction in binding signal in the assay with trypsin [2] is 100%. The same molecule registered a trypsin binding signal (FU) with trypsin [3] of 24400 FU.
